Reference: patent US20250262210A1 (TRUSTEES OF COLUMBIA UNIVERSITY IN THE CITY OF NEW YORK, published 2025)

Tests used:
Test in all cases: IP/MS, LZTR1 wild type-FLAG, U87
FKBP15 = target: T1, FKBP15 (human, UniProt Q5T1M5 1-1219, limits assumed)
T1 sequence (looked up): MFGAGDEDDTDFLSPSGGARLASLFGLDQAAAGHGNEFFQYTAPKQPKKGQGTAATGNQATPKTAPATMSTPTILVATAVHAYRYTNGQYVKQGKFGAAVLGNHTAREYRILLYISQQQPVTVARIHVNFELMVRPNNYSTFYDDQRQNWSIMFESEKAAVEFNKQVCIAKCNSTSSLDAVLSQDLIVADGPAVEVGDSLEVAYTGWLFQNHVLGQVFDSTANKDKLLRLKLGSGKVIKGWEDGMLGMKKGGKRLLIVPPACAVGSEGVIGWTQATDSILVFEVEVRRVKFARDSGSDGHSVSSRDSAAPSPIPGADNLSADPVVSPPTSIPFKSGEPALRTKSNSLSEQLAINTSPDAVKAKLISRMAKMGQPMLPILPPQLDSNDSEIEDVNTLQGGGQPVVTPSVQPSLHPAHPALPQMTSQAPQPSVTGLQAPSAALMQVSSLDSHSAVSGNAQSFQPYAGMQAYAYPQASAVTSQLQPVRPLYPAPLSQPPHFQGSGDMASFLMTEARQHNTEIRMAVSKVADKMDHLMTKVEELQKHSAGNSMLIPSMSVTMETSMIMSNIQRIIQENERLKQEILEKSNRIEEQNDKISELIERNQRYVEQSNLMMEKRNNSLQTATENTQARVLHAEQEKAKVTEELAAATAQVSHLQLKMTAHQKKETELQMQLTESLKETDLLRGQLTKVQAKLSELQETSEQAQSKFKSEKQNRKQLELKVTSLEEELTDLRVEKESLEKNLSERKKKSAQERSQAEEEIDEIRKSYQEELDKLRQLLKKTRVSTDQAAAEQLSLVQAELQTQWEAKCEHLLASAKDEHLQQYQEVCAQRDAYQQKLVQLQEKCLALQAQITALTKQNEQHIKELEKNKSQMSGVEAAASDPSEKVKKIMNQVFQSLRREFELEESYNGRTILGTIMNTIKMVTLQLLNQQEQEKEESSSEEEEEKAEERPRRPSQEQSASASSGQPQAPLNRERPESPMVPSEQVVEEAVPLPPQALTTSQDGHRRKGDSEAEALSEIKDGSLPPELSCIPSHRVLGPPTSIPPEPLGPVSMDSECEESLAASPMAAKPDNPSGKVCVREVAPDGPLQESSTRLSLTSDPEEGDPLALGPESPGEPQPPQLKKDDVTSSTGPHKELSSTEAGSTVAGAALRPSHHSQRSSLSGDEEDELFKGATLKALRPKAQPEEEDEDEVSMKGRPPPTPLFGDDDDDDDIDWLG
How it was run: (§1)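 Gel slices were reduced with 5 mM DTT, alkylated with 11 mM IAA and digested overnight at 37° C. with trypsin. Peptides were analysed on an Orbitrap Fusion Tribrid by LC-MS/MS.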

MED24 = target: T2, MED24 (human, UniProt O75448 1-989, limits assumed)
T2 sequence (looked up): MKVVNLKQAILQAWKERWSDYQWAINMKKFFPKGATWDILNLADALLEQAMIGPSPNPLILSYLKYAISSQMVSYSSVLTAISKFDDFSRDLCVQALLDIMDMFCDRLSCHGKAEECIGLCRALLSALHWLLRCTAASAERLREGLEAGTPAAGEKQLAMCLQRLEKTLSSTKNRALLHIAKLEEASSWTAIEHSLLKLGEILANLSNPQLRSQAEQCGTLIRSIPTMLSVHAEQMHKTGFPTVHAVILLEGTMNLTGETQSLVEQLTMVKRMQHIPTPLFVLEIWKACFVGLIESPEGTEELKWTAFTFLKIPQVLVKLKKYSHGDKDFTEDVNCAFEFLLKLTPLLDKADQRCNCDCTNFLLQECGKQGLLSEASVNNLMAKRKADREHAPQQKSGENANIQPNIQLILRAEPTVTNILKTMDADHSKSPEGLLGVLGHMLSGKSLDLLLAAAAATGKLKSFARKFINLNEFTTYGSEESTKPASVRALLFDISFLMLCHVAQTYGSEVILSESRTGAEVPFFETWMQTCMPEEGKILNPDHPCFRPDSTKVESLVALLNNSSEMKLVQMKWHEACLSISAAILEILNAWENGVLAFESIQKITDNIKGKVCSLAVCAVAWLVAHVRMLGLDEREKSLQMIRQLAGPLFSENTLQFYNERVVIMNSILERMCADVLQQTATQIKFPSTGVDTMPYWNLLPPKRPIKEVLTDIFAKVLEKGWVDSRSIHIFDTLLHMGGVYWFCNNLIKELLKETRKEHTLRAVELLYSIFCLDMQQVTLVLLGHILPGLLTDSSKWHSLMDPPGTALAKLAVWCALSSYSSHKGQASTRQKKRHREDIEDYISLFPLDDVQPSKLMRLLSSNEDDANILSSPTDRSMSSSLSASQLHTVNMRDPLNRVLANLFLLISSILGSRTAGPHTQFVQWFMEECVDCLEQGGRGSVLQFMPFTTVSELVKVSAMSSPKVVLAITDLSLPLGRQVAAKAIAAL
How it was run: as §1

DMXL2 = DMXL2 (human, UniProt Q8TDJ6 1-3036, limits assumed)
How it was run: as §1

Measured: binding result

Sequence of DMXL2 (Q8TDJ6 whole entry): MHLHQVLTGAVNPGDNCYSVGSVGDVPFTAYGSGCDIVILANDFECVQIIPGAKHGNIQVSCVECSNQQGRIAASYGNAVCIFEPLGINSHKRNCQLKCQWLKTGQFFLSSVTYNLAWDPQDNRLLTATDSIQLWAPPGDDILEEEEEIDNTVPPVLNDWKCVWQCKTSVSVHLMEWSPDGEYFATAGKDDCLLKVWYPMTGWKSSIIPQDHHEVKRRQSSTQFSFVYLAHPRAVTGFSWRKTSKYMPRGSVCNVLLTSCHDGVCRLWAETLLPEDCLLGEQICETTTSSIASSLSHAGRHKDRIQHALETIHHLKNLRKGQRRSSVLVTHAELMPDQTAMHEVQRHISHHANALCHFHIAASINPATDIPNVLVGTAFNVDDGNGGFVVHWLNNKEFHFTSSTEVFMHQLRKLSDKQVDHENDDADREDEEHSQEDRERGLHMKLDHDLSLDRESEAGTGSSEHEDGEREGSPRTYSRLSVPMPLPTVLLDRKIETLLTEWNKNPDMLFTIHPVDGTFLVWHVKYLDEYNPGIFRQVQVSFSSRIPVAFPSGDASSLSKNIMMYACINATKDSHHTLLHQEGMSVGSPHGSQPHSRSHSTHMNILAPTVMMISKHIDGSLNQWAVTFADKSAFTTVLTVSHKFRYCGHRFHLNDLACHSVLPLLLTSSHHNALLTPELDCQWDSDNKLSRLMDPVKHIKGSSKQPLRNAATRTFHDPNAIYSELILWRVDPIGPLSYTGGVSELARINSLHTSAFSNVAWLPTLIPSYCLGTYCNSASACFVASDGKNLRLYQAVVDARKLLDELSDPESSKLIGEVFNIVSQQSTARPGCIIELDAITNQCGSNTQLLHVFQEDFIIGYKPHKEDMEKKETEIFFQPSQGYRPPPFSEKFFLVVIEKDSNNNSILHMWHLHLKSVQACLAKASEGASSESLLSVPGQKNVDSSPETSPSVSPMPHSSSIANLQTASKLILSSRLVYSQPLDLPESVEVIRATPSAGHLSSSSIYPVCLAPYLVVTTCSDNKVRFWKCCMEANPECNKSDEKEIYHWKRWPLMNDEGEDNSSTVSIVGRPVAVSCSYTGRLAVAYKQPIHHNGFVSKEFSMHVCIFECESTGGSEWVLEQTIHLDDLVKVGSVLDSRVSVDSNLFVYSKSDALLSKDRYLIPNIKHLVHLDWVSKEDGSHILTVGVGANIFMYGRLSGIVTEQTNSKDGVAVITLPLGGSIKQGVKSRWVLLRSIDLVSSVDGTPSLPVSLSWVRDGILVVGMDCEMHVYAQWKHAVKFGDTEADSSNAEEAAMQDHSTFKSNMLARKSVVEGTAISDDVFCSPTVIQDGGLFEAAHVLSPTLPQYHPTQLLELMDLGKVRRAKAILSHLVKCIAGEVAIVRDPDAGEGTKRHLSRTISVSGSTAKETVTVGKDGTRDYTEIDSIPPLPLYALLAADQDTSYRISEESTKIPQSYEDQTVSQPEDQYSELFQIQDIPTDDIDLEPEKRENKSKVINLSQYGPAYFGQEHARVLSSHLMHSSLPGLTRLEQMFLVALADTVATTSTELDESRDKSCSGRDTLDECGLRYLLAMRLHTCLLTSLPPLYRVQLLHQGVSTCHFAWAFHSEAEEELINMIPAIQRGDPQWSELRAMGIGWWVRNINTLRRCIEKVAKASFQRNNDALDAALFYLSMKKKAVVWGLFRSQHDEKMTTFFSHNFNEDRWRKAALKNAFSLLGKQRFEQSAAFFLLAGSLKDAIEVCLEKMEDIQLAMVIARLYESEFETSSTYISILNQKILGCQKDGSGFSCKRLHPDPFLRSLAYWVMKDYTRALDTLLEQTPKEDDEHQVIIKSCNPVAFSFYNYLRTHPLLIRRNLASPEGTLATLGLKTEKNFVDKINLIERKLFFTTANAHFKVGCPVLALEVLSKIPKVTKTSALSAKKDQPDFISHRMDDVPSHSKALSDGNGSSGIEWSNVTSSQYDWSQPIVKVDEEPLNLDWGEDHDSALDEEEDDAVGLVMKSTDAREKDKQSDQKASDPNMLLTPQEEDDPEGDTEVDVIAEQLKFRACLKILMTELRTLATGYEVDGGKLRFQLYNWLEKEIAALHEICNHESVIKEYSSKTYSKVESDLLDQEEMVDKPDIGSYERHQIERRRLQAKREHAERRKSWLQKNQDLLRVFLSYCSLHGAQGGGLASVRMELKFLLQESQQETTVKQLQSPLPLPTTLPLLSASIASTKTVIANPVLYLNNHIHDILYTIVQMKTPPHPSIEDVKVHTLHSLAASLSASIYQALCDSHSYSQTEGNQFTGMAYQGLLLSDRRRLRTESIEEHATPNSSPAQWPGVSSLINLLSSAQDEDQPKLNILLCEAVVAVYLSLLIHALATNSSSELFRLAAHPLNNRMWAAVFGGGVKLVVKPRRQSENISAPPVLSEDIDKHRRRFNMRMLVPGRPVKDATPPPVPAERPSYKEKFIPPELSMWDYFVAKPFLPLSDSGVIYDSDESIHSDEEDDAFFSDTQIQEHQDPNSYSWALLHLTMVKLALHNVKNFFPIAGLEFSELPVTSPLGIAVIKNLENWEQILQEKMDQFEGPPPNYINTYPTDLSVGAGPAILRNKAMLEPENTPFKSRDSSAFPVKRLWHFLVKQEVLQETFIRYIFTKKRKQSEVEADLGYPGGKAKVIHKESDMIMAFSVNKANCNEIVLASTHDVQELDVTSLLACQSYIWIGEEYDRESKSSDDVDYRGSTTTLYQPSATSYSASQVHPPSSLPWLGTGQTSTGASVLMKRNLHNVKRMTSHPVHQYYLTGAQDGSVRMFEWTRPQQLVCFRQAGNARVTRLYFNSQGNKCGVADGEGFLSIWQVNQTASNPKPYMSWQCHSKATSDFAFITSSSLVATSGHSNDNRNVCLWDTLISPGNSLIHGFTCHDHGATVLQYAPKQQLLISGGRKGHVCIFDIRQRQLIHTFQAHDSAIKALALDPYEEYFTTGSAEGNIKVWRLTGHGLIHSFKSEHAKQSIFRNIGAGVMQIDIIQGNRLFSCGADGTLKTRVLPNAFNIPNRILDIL

B1: LZTR1-FLAG (other, human, UniProt Q8N653 1-840, looked up)
chain: MAGPGSTGGQIGAAALAGGARSKVAPSVDFDHSCSDSVEYLTLNFGPFETVHRWRRLPPCDEFVGARRSKHTVVAYKDAIYVFGGDNGKTMLNDLLRFDVKDCSWCRAFTTGTPPAPRYHHSAVVYGSSMFVFGGYTGDIYSNSNLKNKNDLFEYKFATGQWTEWKIEGRLPVARSAHGATVYSDKLWIFAGYDGNARLNDMWTIGLQDRELTCWEEVAQSGEIPPSCCNFPVAVCRDKMFVFSGQSGAKITNNLFQFEFKDKTWTRIPTEHLLRGSPPPPQRRYGHTMVAFDRHLYVFGGAADNTLPNELHCYDVDFQTWEVVQPSSDSEVGGAEVPERACASEEVPTLTYEERVGFKKSRDVFGLDFGTTSAKQPTQPASELPSGRLFHAAAVISDAMYIFGGTVDNNIRSGEMYRFQFSCYPKCTLHEDYGRLWESRQFCDVEFVLGEKEECVQGHVAIVTARSRWLRRKITQARERLAQKLEQEAAPVPREAPGVAAGGARPPLLHVAIREAEARPFEVLMQFLYTDKIKYPRKGHVEDVLLIMDVYKLALSFQLCRLEQLCRQYIEASVDLQNVLVVCESAARLQLSQLKEHCLNFVVKESHFNQVIMMKEFERLSSPLIVEIVRRKQQPPPRTPLDQPVDIGTSLIQDMKAYLEGAGAEFCDITLLLDGHPRPAHKAILAARSSYFEAMFRSFMPEDGQVNISIGEMVPSRQAFESMLRYIYYGEVNMPPEDSLYLFAAPYYYGFYNNRLQAYCKQNLEMNVTVQNVLQILEAADKTQALDMKRHCLHIIVHQFTKVSKLPTLRSLSQQLLLDIIDSLASHISDKQCAELGADI
notes: Expressed in HEK 293T, HeLa or U87 cells; used as cell lysate; also called LZTR1 wild type-FLAG; LZTR1 WT; not shown: FLAG tag at the C-terminus
binds: all assays above
